Patent US11046988B2, “Process for the modification of a glycoprotein using a β-(1,4)-N-acetylgalactosaminyl transferase or a mutant thereof” (Synaffix B.V., priority 2014, dated 2021)

Tested on: GlcNAc-Man5-GlcNAc-GlcNAc(Fuc)-substituted trastuzumab (formula 26)
Experiment: Glycosyltransfer of GalNAz to GlcNAc-Man5-GlcNAc-GlcNAc(Fuc)-substituted trastuzumab, MS analysis
Assay type: biochemical
Settings: UDP-GalNAz 0.5 mM, CeGalNAcT 0.1 mg/mL, 10 mM MnCl2, pH 8.0, 16 hours, 30° C.
Experimental: Trastuzumab transiently expressed in the presence of swainsonine as described in Example 18 (10 mg/mL) was incubated with neuraminidase (0.5 mU/mg IgG) from Vibrio cholerae (commercially available from Sigma-aldrich) in 100 mM sodium acetate pH 6.0 and 2 mM CaCl2 for 16 hrs, which led to complete removal of the sialic acid (two major heavy chain products of 50712 and 50874 Da which correspond to approximately 20 and 70% of the total heavy chain products). When the same reaction was performed in the presence of β(1,4)-galactosidase (3 mU/mg IgG) from Streptococcus pneumoniae (commercially available from Calbiochem), a single major heavy chain product was observed corresponding to trastuzumab with a GlcNAc-Man5-GlcNAc-GlcNAc(Fuc)-substituted heavy chain (c=d=0, 50712 Da, ±90% of total heavy chain product, and minor heavy chain products between 50700 and 50900 Da).
A solution of 50 μg (modified) IgG, 1 M Tris-HCl pH 8.0, 1 mM EDTA and 30 mM DTT with a total volume of approximately 70 μL was incubated for 20 minutes at 37° C. to reduce the disulfide bridges allowing to analyze both light and heavy chain. If present, azide-functionalities are reduced to amines under these conditions. […] The reduced IgG was analyzed by electrospray ionization time-of-flight (ESI-TOF) on a JEOL AccuTOF. […]

CeGalNAcT: truncated Caenorhabditis elegans β-(1,4)-GalNAcT, amino acids 30-383 of SEQ ID NO: 2 (SEQ ID NO: 6)
conversion into GalNAz-GlcNAc-Man5-GlcNAc-GlcNAc(Fuc)-substituted trastuzumab: complete conversion
major heavy chain product (GalNAz-GlcNAc-Man5-GlcNAc-GlcNAc(Fuc)-substituted): ~90 % of the total heavy chain products
